Experimental data as given in paper PMC7924758, “IAA3-mediated repression of PIF proteins coordinates light and auxin signaling in Arabidopsis” (PLoS Genetics, 2021).

Biological target: T1, His-PIF1 (Arabidopsis thaliana, UniProt Q8GZM7 1-478)
T1 construct: also called His-tagged PIF1; source: E. coli Transetta (DE3), purified (Ni-NTA agarose)
T1 sequence (looked up): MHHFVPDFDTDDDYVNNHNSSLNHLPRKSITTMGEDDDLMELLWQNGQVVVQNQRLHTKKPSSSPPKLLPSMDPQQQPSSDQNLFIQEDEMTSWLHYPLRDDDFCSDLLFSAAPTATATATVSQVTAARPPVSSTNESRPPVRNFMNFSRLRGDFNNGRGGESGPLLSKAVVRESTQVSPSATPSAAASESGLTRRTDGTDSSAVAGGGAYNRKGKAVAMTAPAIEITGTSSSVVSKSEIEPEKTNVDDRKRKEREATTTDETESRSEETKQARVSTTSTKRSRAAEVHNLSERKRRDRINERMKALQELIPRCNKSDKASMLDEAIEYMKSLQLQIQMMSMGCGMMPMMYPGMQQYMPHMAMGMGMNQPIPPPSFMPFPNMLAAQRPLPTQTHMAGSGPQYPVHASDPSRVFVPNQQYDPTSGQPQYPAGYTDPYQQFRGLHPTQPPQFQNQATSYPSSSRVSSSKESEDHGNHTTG
Test: pull-down; MBP or MBP-IAA3 held on amylose resin, His-PIF1 or His-PIF4 added, 3 h at 4°C; 50 mM Tris-Cl pH 8.0, 150 mM NaCl, 10% glycerol, 0.5 mM EDTA, 0.1% Triton X-100, 5 mM β-mercaptoethanol; five washes; blots with anti-MBP and anti-His
Conditions: both partners purified

B1: MBP-IAA3 (natural protein, Arabidopsis thaliana, UniProt Q38822 1-189, looked up)
chain: MDEFVNLKETELRLGLPGTDNVCEAKERVSCCNNNNKRVLSTDTEKEIESSSRKTETSPPRKAQIVGWPPVRSYRKNNIQSKKNESEHEGQGIYVKVSMDGAPYLRKIDLSCYKGYSELLKALEVMFKFSVGEYFERDGYKGSDFVPTYEDKDGDWMLIGDVPWEMFICTCKRLRIMKGSEAKGLGCGV
notes: IAA3 (SHY2), AUX/IAA transcriptional repressor, Arabidopsis; also called SHY2; source: E. coli Transetta (DE3), purified (amylose agarose)
binding result: binds
